In patent US20210284724A1 (I MAB BIOPHARMA US, published 2021):
Where a chain is given by its changes, count along the chain named. Read-outs that look alike come from different tables or passages of the source. One block for each binder: values may come before it.

Experiments:
human CXCL13 [1] = target: T1, human CXCL13 (human, UniProt O43927 23-109); assay: SPR Biacore 8K, Fab over immobilised CXCL13
T1 construct: also called huCXCL13; rhCXCL13
T1 sequence (looked up): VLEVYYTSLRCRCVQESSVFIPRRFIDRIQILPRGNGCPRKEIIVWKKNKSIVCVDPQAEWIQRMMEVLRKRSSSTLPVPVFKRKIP
Description: HuCXCL13 binding affinity by Surface Plasmon Resonance. 411A11E9, 415A3D1, 64C10G1, 21H12D9, 329F2E1, 71F4A3 were selected to produce Fab and tested binding affinity. The binding of the antibodies to huCXCL13 was examined by Biacore 8K. 10 mM HEPES, 150 mM NaCl, 3 mM EDTA, 0.05% Tween-20, pH 7.4 served as running buffer and 10 mM glycine-HCl, pH2.0 served as regeneration buffer. CXCL13 protein was immobilized on Sensor Chip CM5 using amine coupling method (immobilization level ˜30RU). The serial concentrations of Fab (0-16 nM) were injected over immobilized CXCL13 at the flow rate of 30 μl/min. The dissociation phases were 600s.

human CXCL13 [2] = target: T1, human CXCL13; assay: ELISA, coated antigen
cynomolgus CXCL13 = target: T2, cynomolgus CXCL13 (cynomolgus, UniProt H6WS58 23-109); assay: ELISA, coated antigen
T2 construct: also called cynoCXCL13; Cyno CXCL13
T2 sequence: T1 sequence (looked up) with S8H, L32S, I52V, M65I, V68M, R72K, L77P

mouse CXCL13 = target: T3, mouse CXCL13 (mouse, UniProt O55038 22-109); assay: ELISA, coated antigen
T3 construct: also called rmCXCL13
T3 sequence (looked up): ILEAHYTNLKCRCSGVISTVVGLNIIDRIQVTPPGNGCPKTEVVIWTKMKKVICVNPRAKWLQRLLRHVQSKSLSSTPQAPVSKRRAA

human CXCL13 [3] = target: T1, human CXCL13; assay: cell-based blocking ELISA, CXCL13 to CHO-K1-CXCR5
Method in brief: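 Hybridoma supernatants or purified antibodies were preincubated 30 min at RT with human CXCL13 (0.3 μg/ml, before mixing), then added 30 min to PFA-fixed CHO-K1-CXCR5 cells. Bound CXCL13 was detected with Mab5261 plus anti-human Fc-HRP, read at 450 nm.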

human CXCL13 [4] = target: T1, human CXCL13; assay: SPR Biacore, off-rate ranking of Fabs
human CXCL13 [5] = target: T1, human CXCL13; assay: SPR Biacore 8K, Fab over immobilised CXCL13; remark: listed apart in the source
Description: Among all humanized Fab samples, 71F4A3-VH2VL1, 71F4A3-VH1VL1 (Hz71F4), 71F4A3-VH1VL2, 71F4A3-VH3VL1, 411A11E9-VH1VL4, 411A11E9-VH3VL4, 411A11E9-VH2VL4, 411A11E9-VH3VL2, 411A11E9-VH1VL2, 21H12D9-VH1VL1, 21H12D9-VH2VL2, 21H12D9-VH3VL3, 21H12D9-VH1VL2, 64C10G1-VH1VL3, 64C10G1-VH1VL4, 64C10G1-VH1VL1, 64C10G1-VH1VL2 were selected to test affinity by Biacore 8K. 10 mM HEPES, 150 mM NaCl, 3 mM EDTA, 0.05% Tween-20, pH 7.4 served as running buffer and 10 mM glycine-HCl, pH2.0 served as regeneration buffer. CXCL13 protein were immobilized on Sensor Chip CM5 using amine coupling method (immobilization level ˜250RU). The serial concentrations of Fab (0-20 nM) were injected over immobilized CXCL13 at the flow rate of 30 μl/min. The dissociation phases were 600s.

human CXCL13 [6] = target: T1, human CXCL13; assay: SPR Biacore T200
Description: To further optimization of 71F4-B, each Mutations in 71F4A3 useful for improving binding (Kon) were added into 71F4-B, the sequences were listed in Table 28. Antibodies according to these sequences were generated and affinity testing was performed by Biacore T200.

human CXCL13 [7] = target: T1, human CXCL13; assay: cell-based blocking ELISA, CXCL13 to CHO-K1-CXCR5; remark: listed apart in the source
Description: This example tested the blocking of the anti-CXCL13 chimeric antibodies to CHO-K1-CXCR5 cells. Briefly, 5×10⁴ CHO-K1-CXCR5 cells were plated in 96-well plate with 100 μl of culture medium and incubated at 37° C. overnight. Cells were fixed with 100 μl of 2% PFA at RT for 1 hr after washing with PBS for 1 time. Samples were blocked with 1% BSA in PBST for 1 hr at RT. Antibodies were serial diluted from 50 μg/ml by 3-fold with 1% BSA/PBST and pre-incubated with equal volume of 0.3 μg/ml human CXCL13 for 30 min at RT. 100 μl of antibody-antigen complex was transferred into each cell wells for 30 min at RT. Samples were washed with 1×PBST for 3 times and 100 μl of 3 μg/ml of human Mab5261 antibody was added into each well to capture human CXCL13 and anti-human Fc-HRP was used to indirectly detect human CXCL13 when it bound to CHO-K1-CXCR5 cells.
Then read at 450 nm. […] Among all clones, 415A3D1, 64C10G1, 1H3A11, 414D10F5, 411A11E9, 21H12D9, 71F4A3, 329F2E1 show completely blocking activity and 408E3F3, 19H7E10, 339A6E7 appeared to be partial blockers.

B4: 21H12D9 chimeric Fab (Fab, V domains shown)
VH: EVQLQQSGPVLVRPGASVKMSCKASGYTFTDYYMNWVKQSHGKSLEWIGVINPNNGGTTYKEKFKGKATLTVDKSSGTAYMELNSLTSEDSAVYYCARDDYDAGYWGQGTTLTVSS
VL: DIVMTQFQKFMSTTVGDRVSITCKASQNVDTAVAWYQHKPGQSPKLLIYSASHRYTGVPDRFTGSGSGTDFTLTISNVQSEDLADYFCQQYTDFPLTFGAGTKLELK
notes: Fab; also called 21VH12D9-Chimeric
Kd (human CXCL13 [4]): 1.18 nM
koff (human CXCL13 [4]): 0.00139 s⁻¹
kon (human CXCL13 [4]): 1.17e+06 M⁻¹ s⁻¹
Kd (human CXCL13 [1]): 0.341 nM
koff (human CXCL13 [1]): 0.000731 s⁻¹
kon (human CXCL13 [1]): 2.14e+06 M⁻¹ s⁻¹
Kd (human CXCL13 [5]): 1.42 nM
koff (human CXCL13 [5]): 0.00258 s⁻¹
kon (human CXCL13 [5]): 1.82e+06 M⁻¹ s⁻¹

B6: 71F4-B-A (antibody, V domains shown)
VH: EVQLVESGGGLVQPGGSLRLSCAASGIDFSRYWMSWVRQAPGKGLEWVAEINPEASTINYAPSLKDRFTISRDNAKNSLYLQMNSLRAEDTAVYYCARQDDYEYYTMDYWGQGTTVTVSS
VL: DIQMTQSPSSLSASVGDRVTITCKVSQDVNTGVAWYQQKPGKAPKLLIYSASYRYTGVPSRFSGSGSGTDFTFTISSLQPEDIATYYCQQYYSTPLTFGGGTKLEIK
Kd (human CXCL13 [6]): 0.388 nM
koff (human CXCL13 [6]): 6.82e-05 s⁻¹
kon (human CXCL13 [6]): 176000 M⁻¹ s⁻¹

B7: 71F4-B-AS (antibody, V domains shown)
VH: B6 VH with T57S
VL: B6 VL
Kd (human CXCL13 [6]): 0.321 nM
koff (human CXCL13 [6]): 7.25e-05 s⁻¹
kon (human CXCL13 [6]): 226000 M⁻¹ s⁻¹

B9: 71F4-B-ASH (antibody, V domains shown)
VH: B6 VH with T57S, E103S, Y104H
VL: B6 VL
Kd (human CXCL13 [6]): 0.521 nM
koff (human CXCL13 [6]): 9.17e-05 s⁻¹
kon (human CXCL13 [6]): 176000 M⁻¹ s⁻¹

B10: 71F4-B-S1 (antibody, V domains shown)
VH: B6 VH with A55S, T57S
VL: B6 VL
Kd (human CXCL13 [6]): 0.404 nM
koff (human CXCL13 [6]): 9.26e-05 s⁻¹
kon (human CXCL13 [6]): 229000 M⁻¹ s⁻¹

B11: 71F4-B-LT (antibody, V domains shown)
VH: B6 VH with A55S, E103L, Y104T
VL: B6 VL
notes: also called 71F4A3-B-LT
Kd (human CXCL13 [6]): 0.0435 nM
koff (human CXCL13 [6]): 1.02e-05 s⁻¹
kon (human CXCL13 [6]): 235000 M⁻¹ s⁻¹

B13: 71F4-B-H (antibody, V domains shown)
VH: B6 VH with A55S, Y104H
VL: B6 VL
notes: also called 71F4A3-B-H
Kd (human CXCL13 [6]): 0.0647 nM
koff (human CXCL13 [6]): 1.27e-05 s⁻¹
kon (human CXCL13 [6]): 197000 M⁻¹ s⁻¹

B14: 71F4-B-L (antibody, V domains shown)
VH: B6 VH with A55S, E103L
VL: B6 VL
Kd (human CXCL13 [6]): 0.443 nM
koff (human CXCL13 [6]): 8.58e-05 s⁻¹
kon (human CXCL13 [6]): 194000 M⁻¹ s⁻¹

Other lines, results leading:

Kd (human CXCL13 [1]): 0.602 nM
koff (human CXCL13 [1]): 0.000581 s⁻¹
kon (human CXCL13 [1]): 966000 M⁻¹ s⁻¹
B1: 329F2E1 chimeric Fab (Fab, V domains shown)
VH: EVKLLQSGGGLVQPGGSLKLSCAASGIDFSRYWMSWVRRAPGKGLEWIGEINPDSSTINYAPSLKDKFIISRDNAKNTLYLQMSKVRSEDTALYYCARQDDYDYYAMDYWGQGTSVTVSS
VL: DIVMTQSHKFMSTSVGDRVSITCKASQDVSTGVAWYQQKPGQSPKLLIYSASYRYTGVPDRFTGSGSRTDFTFTISSVQTEDPAVYYCHQYYTIPLTFGAGTELELK
notes: Fab

EC50 (human CXCL13 [2]): 2.14 µg/mL
binding result (cynomolgus CXCL13): no binding
EC50 (mouse CXCL13): 0.761 µg/mL
IC50 (human CXCL13 [3]): 8.38 µg/mL
B2: 410A4D10 (antibody, V domains shown)
VH: EVQLQQSGPGLVRPSGTLSLTCAVSGGSISSRNWWGWVRQPPGKGLEWIGEIYHSGGTNYNPSLKSRVTISVDKSKNQFSLKLSSVTAADTAVYYCAREFGDSVWYFDLWGRGTLVTVSS
VL: DIVITQSPSSMSASLGDRVTITCQASQDIGNDLVWFQQKPGKSPRPLIYYATNLADGVPSRFSGRRSESKYSLTISNLESEDMADYHCLQFKQYPYTFGAGTKLELK
notes: Hybridoma mAb

Kd (human CXCL13 [4]): 0.708 nM
koff (human CXCL13 [4]): 0.00287 s⁻¹
kon (human CXCL13 [4]): 4.05e+06 M⁻¹ s⁻¹
Kd (human CXCL13 [1]): 0.158 nM
koff (human CXCL13 [1]): 0.000326 s⁻¹
kon (human CXCL13 [1]): 2.06e+06 M⁻¹ s⁻¹
Kd (human CXCL13 [5]): 0.74 nM
koff (human CXCL13 [5]): 0.00156 s⁻¹
kon (human CXCL13 [5]): 2.11e+06 M⁻¹ s⁻¹
B3: 411A11E9 chimeric Fab (Fab, V domains shown)
VH: EVQLVESGGGLVQPGGSLKLSCVVSGFTFSDYYMAWVRQTPTKGLEWVASINYDGGDTYYRDSVKGRFTVSRNNAKSSLFLQMDSLRSEDTATYYCKTEEDYDGSYVMDAWGQGASVIVSS
VL: DIQMTQSPSFLSASVGDRVTISCKASQNINKELTWYQQKLGKAPKRLIYNTNILQTGIPSRFSGSGSNTDYTLTISSLQPEDFATYFCLQQSSLYTFGAGTKLELK
notes: Fab

Kd (human CXCL13 [1]): 1.2 nM
koff (human CXCL13 [1]): 0.00306 s⁻¹
kon (human CXCL13 [1]): 2.56e+06 M⁻¹ s⁻¹
B5: 415A3D1 chimeric Fab (Fab, V domains shown)
VH: EVKLLESGGGLVQAGGSMRLSCGAFGFTVTDFYINWIRQPAGKAPEWLGFMRNKANGYTTEYNPSVKGRFTISRNNTQNMPYLQMNTLRTEDTAIYYCARSRYNADDYYVGVMDVWGQGASVTVSS
VL: DIQMTQFPASLSASLGETVSIECLASEDIYNNLAWYQQKPGKSPQLLIYYTNSLQDGVPSRFSGTGSGTQYSLKINSLESEDAATYFCLQDSEYPWTFGGGTKLKLK
notes: Fab; label read as clone 415A3D1F4

Kd (human CXCL13 [6]): 0.0456 nM
koff (human CXCL13 [6]): 1.17e-05 s⁻¹
kon (human CXCL13 [6]): 256000 M⁻¹ s⁻¹
B8: 71F4-B-T (antibody, V domains shown)
VH: B6 VH with A55S, Y104T
VL: B6 VL
notes: also called 71F4A3-B-T

Kd (human CXCL13 [6]): 0.29 nM
koff (human CXCL13 [6]): 5.55e-05 s⁻¹
kon (human CXCL13 [6]): 192000 M⁻¹ s⁻¹
B12: 71F4-B-SH (antibody, V domains shown)
VH: B6 VH with A55S, E103S, Y104H
VL: B6 VL

Kd (human CXCL13 [6]): 0.377 nM
koff (human CXCL13 [6]): 9.46e-05 s⁻¹
kon (human CXCL13 [6]): 251000 M⁻¹ s⁻¹
B15: 71F4-B-SSH (antibody, V domains shown)
VH: B6 VH with A55S, T57S, E103S, Y104H
VL: B6 VL

Kd (human CXCL13 [6]): 0.52 nM
koff (human CXCL13 [6]): 0.000268 s⁻¹
kon (human CXCL13 [6]): 515000 M⁻¹ s⁻¹
B16: 71F4-B-S2 (antibody, V domains shown)
VH: B6 VH with A55S, E103S
VL: B6 VL

IC50 (human CXCL13 [7]): 7.64 µg/mL
B17: 408E3F3 chimeric human IgG1 antibody (antibody, V domains shown)
VH: HVTLRESGPGVLQPSKTLSLTCSFSGFSLSTSAMVVSWIRQSSGMSLEWLAAIDWEGDKYYNPSLESRLTVSRDISDTQVFLRITSVDVADTATYYCAVMSSADSHSVLDAWGQGVSVTVSS
VL: DIKMTQSPSFLSASVGDRVTINCKASQNIHNYLNWYQQKFGEAPRLLIYNTNNLQTGIPSRFSGSGSGTDFTLTISSLQPEDVATYFCLQHSSSLTFGSGTKLEIN
notes: Chimeric human IgG1
